± gives the uncertainty stated by the source.
test: amyloid nucleation score (Sup35N fusion, yeast selection) (log enrichment); library NNK1; higher = more nucleation; inactive = no reads after selection
Summary of the method: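 Peptides of 20 random codons, each fused to Sup35N, were expressed in psi-negative yeast. Cells were induced with 100 μM copper sulfate for 24 hours and grown 7 days at 30°C on medium lacking adenine and uracil, and plasmid inserts before and after selection were Illumina-sequenced. Nucleation scores are DiMSum log enrichments of output over input reads, centred on the mode score of non-aggregating sequences, and sequences under 100 input reads were excluded.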

Substance | amyloid nucleation score
FLAWRTLDEMVLCKRCDNAI | 0.291 ± 1
SLRGQAHLQFSLRILSHSS | 1.4 ± 0.24
CLEDFLDNLFSSGYFKFQLV | inactive
RCGVRLF | -1.31 ± 1.2
FFNYD | -0.628 ± 0.8
ESYSYQGCFATYLQQNTWCT | -0.008 ± 0.28
NTSEIPCCVIQEWFYCTFYL | 7.503 ± 0.044
KRVCLFLGSWNRHHLLGLFG | 1.41 ± 0.84
MITSDKIGSQWLQCRLKVAC | -0.43 ± 0.53
VVKLRHYAEKICGSETELG | 0.003 ± 0.51
LHRITYLCSNVYSVCGLVCA | 4.35 ± 0.079
NFNFFRRCLGSPYNRPEWID | -0.066 ± 0.42
GTSTHIIFGMAVSSVRRYHM | 1.33 ± 0.33
HLVRLTFVMLFGGNLWISS | 0.91 ± 0.26
WHFFVKKRVRCDSHSSMQWN | -0.677 ± 0.69
WGQFYVLTSVLHYINQWH | -2.58 ± 2.7
LGTGCA | -0.507 ± 0.83
SNRNAGRKTMGHLWHQE | 0.2 ± 0.42
AAVLGFCSWNLRRRIMEF | -0.864 ± 1.4
FETDNIDPHGYSFEYDASPA | -0.25 ± 0.43
MGLPVLVINNHTAKNGVTRA | 0.711 ± 0.73

Substance | amyloid nucleation score
CPCWLLMLFPCISYRRNLIV | -0.605 ± 0.46
LSSYSTYPCSLTGVRKLNCR | -0.205 ± 0.56
CEVRFLCWYGFIWRYN | -0.336 ± 0.74
PSRNLVRVDPFLGIRQMVSS | -0.096 ± 1
NIITIETGGRKVGTFMMYSI | inactive
FGVRQVYINGNFLRCLGTKS | 0.751 ± 0.93
ILGVSMPPFYSV | -0.532 ± 0.84
LTEDLNMPSWCKP | 0.087 ± 0.7
TLVGKVLADDSRGFINCR | 0.924 ± 0.97
ALVYANPMTVWPSGSLTSVL | 0.685 ± 0.47
FRKLKTAYDFFHCRCPHSNA | 0.373 ± 0.78
LRYDVPRWLGFSEWHF | -0.833 ± 1
VHSCIYVSKTSLELARYQML | inactive
RFVCLLIGVSQLPQLRCEYR | -1.17 ± 0.47
NRANSVVGQACRKSVIRNRF | -0.144 ± 0.32
QFWHYGF | -1.04 ± 2.4
RCCLVMCWCLCKNYSN | 5.38 ± 0.049
GQIDGCGTRVNT | 2.17 ± 0.14
DSRDVNSSLIIRVRVEDGTL | -1.2 ± 1.5
SGTAKGVLAW | 1.4 ± 0.63
NGLQMDCWPLCWRGGGARNC | 0.582 ± 0.38

Substance | amyloid nucleation score
IICFVVISWTRFLMSQKCFC | -0.143 ± 0.35
HDLTWVSTSESFFSLMGHAS | -0.28 ± 0.29
FCAGGMGNCKCWLCFLRSTM | -1.33 ± 0.7
FQFESHW | 1.85 ± 0.24
QRLCNQWMSDKLQY | 1.84 ± 0.67
LMWDIWVSYGGAKMSDWSKG | -0.225 ± 0.31
NGRIQKLASNTCGLWEDLDT | 0.501 ± 0.54
SSVGKLGDPWL | -1.15 ± 0.53
VYTSTVMFEHMDRNMLMVKM | 0.166 ± 0.21
VLCSRIYDHAWAKG | inactive
NHTGYTWMNVR | -0.099 ± 0.26
GTLFYTDPLLCIVYLINLCR | -0.33 ± 0.56
NLVVTTWARDIADYISAS | -0.01 ± 0.4
MSEVTMGLRTMFVIFNR | 2.79 ± 0.1
LSWVMRYLPYVVFLSYDQPG | -0.723 ± 0.62
KGTCCPPLPVILDIMEDSSR | -0.227 ± 0.38
TRVYIYRTGIWFYLTSNSFT | 0.577 ± 0.43
FQPIGSMWNYRSMYVYSTLF | -0.062 ± 0.57
SNESILFVGSPVTRFIQYVD | inactive
CNVKCLRVARFDFVYRFFLP | inactive
SQWALKITFYKMVAL | -0.171 ± 1.1
